Numbering of substitutions follows the chain as printed.
B1: mKate2 protein (other)
chain: MVSELIKENMHMKLYMEGTVNNHHFKCTSEGEGKPYEGTQTMRIKAVEGGPLPFAFDILATSFMYGSKTFINHTQGIPDFFKQSFPEGFTWERVTTYEDGGVLTATQDTSLQDGCLIYNVKIRGVNFPSNGPVMQKKTLGWEASTETLYPADGGLEGRADMALKLVGGGHLICNLKTTYRSKKPAKNLKMPGVYYVDRRLERIKEADKETYVEQHEVAVARYCDLPSKLGHR
notes: Engineered far-red fluorescent protein derived from Entacmaea quadricolor eqFP578; The partner is a second copy of the same protein (self-association / dimerization seen by FPLC)
B2: mKate2.7C (other)
chain: MVSELIKENMPMKLYMEGTVNNHHFKCTSEGEGKPYEGTQTMRIKVVEGGPLPFAFDILATSFMYGSRTFIKHPPGIPDFFKQSFPEGFTWERVTTYEDGGVLTATQDTSLQDGCLIYNVKVRGVNFPANGPVMQKKTLGWEASTETMYPADGGLEGACDMALKLVGGGHLICNLETTYRSKKPATNLKMPGVYNVDHRLERIKEADDETYVEQHEVAVARYSTGGAGDGGK
notes: A vector His tag from pQE30 is probably present but not described; It was tested for self-association by FPLC
B3: mKate2.5 (other)
chain: B2 chain with P11H, R68K, K72N, P75Q, V122I, M148L, T186K, H198R, D208N
notes: as for B2

What was measured:
[1] = target: the molecule itself; test: FPLC gel filtration of purified protein (homodimerization)
[2] = target: the molecule itself; test: FPLC gel filtration, Superdex 200 (self-association)
Procedure: Gel filtration chromatography was performed using a Superdex 200 10/300 GL column (Amersham Biosciences), equilibrated with 40 mm Tris-HCl (pH 7.5), 150 mm NaCl buffer at a flow rate of 0.4 ml/min. Apparent molecular masses were calculated by interpolating an elution volume versus log (molecular mass) calibration curve using ferritin (440 kDa), catalase (232 kDa), aldolase (158 kDa), BSA (67 kDa), ovalbumin (43 kDa), chymotrypsinogen A (25 kDa), and ribonuclease A (13.7 kDa). 200 uL of each fluorescent protein at concentration 1 mg/ml were loaded.

Protein | binding result [1] | binding result [2]
B1 | binds | 
B2 |  | no binding (tested: >1 mg/ml)
B3 |  | no binding (tested: >1 mg/ml)

From US20120094377A1 (EVROGEN JSC, published 2012)
